Assay results reported in publication PMC9472132 (Journal for Immunotherapy of Cancer, 2022).
Read-outs that look alike come from different tables or passages of the source.

B1: MK-5890 (humanized anti-human CD27 agonist antibody, hIgG1) (antibody, V domains shown)
VH: EIQLVQSGAEVKKPGASVKVSCKASGYTFTNYGMNWVKQAPGQGLKWMGWINTNTGEPTYAEEFKGRFTFTLDTSISTAYMELSSLRSEDTAVYYCAREGDAMDYWGQGTTVTVSS
VL: EIVLTQSPATLSLSPGERATLSCSASSSVSYMHWYQQKPGQAPKRWIYDTSKLASGVPARFSGSGSGTDYSLTISSLEPEDFAVYYCQQWNSYPFTFGQGTKLEIK
B2: varlilumab analog (anti-CD27 fully human IgG1 antibody, made in-house from published patented sequences) (antibody, V domains shown)
VH: QVQLVESGGGVVQPGRSLRLSCAASGFTFSSYDMHWVRQAPGKGLEWVAVIWYDGSNKYYADSVKGRFTISRDNSKNTLYLQMNSLRAEDTAVYYCARGSGNWGFFDYWGQGTLVTVSS
VL: DIQMTQSPSSLSASVGDRVTITCRASQGISRWLAWYQQKPEKAPKSLIYAASSLQSGVPSRFSGSGSGTDFTLTISSLQPEDFATYYCQQYNTYPRTFGQGTKVEIK

Legend:
[1] = biological target: T1, human CD27 expressed on CHO-K1 cells (human, UniProt P26842); test: ELISA
[2] = biological target: rhesus monkey CD27 expressed on CHO-K1 cells (Macaca mulatta, UniProt F7BYS2); test: ELISA
[3] = biological target: T2, rhesus monkey CD27 on primary peripheral blood T cells (Macaca mulatta, UniProt F7BYS2); test: flow cytometry on cells
[4] = biological target: T3, human CD27 on primary peripheral blood T cells (Homo sapiens (Human)., UniProt P26842); test: flow cytometry on cells
[5] = biological target: T2, rhesus monkey CD27 on primary …; test: flow cytometry on cells; remark: listed apart in the source
[6] = biological target: T3, human CD27 on primary peripheral blood …; test: flow cytometry on cells; remark: listed apart in the source
[7] = biological target: human CD27-IgG fusion protein (Homo sapiens (Human)., UniProt P26842); test: SPR
[8] = biological target: rhesus monkey CD27-IgG fusion protein (Macaca mulatta, UniProt F7BYS2); test: SPR
[9] = biological target: T1, human CD27 expressed on CHO-K1 cells; test: flow cytometry on cells

EC50 [1] [pM]	EC50 [2] [pM]	EC50 [3] [pM]	EC50 [4] [pM]	EC50 [5] [pM]	EC50 [6] [pM]	Kd [7] [pM]	koff [7] [s⁻¹]	kon [7] [M⁻¹ s⁻¹]	Kd [8] [pM]	koff [8] [s⁻¹]	kon [8] [M⁻¹ s⁻¹]	IC50 [9] [pM]	Binder
72	54	170	320	220	300	5100	0.0011	220000	4300	0.001	230000	240	B1
325	193	1580	1540	1920	1300	630	0.00012	190000	970	0.00022	230000	2850	B2
